Results from PMC10033316.

Test: BS3 cross-linking, non-reducing SDS-PAGE, anti-Flag blot
Settings: glycan changed form; control: K562/ADR cells (low GnT-III)

B1: TNF receptor 2 (TNFR2): GnT-III overexpression (protein)
parent chain: MAPVAVWAALAVGLELWAAAHALPAQVAFTPYAPEPGSTCRLREYYDQTAQMCCSKCSPGQHAKVFCTKTSDTVCDSCEDSTYTQLWNWVPECLSCGSRCSSDQVETQACTREQNRICTCRPGWYCALSKQEGCRLCAPLRKCRPGFGVARPGTETSDVVCKPCAPGTFSNTTSSTDICRPHQICNVVAIPGNASMDAVCTSTSPTRSMAPGAVHLPQPVSTRSQHTQPTPEPSTAPSTSFLLPMGPSPPAEGSTGDFALPVGLIVGVTALGLLIIGVVNCVIMTQVKKKPLCLQREAKVPHLPADKARGTQGPEQQHLLITAPSSSSSSLESSASALDRRAPTRNQPQAPGVEASGAGEARASTGSSDSSPGGHGTQVNVTCIVNVCSSSDHSSQCSSQASSTMGDTDSSPSESPKDEQVPFSKEECAFRSQLETPETLLGSTEEKPLPLGVPDAGMKPS
oligomerisation: decreases
